# US20180155451A1 (published 2018)
# B1: GpH7-B3 variant S337_16H/GpL16-k0 (antibody, human IgG1, kappa)
# heavy: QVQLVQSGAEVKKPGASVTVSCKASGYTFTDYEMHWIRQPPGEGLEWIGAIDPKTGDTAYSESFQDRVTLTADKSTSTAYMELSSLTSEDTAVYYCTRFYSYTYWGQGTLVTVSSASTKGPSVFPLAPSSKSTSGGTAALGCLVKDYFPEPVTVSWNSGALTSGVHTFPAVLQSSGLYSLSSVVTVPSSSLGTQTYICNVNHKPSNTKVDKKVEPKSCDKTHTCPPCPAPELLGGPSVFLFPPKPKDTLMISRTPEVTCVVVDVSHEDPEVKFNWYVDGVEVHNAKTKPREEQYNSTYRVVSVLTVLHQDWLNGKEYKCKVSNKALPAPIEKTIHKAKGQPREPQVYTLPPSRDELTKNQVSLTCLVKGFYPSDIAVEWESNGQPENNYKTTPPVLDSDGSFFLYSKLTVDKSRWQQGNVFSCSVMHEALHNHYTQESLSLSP
# light: DIVMTQSPLSLPVTPGEPASISCQASESLVHSNRNTYLHWYLQKPGQSPQLLIYKVSNRFSGVPDRFSGSGSGTDFTLKISRVEAEDVGVYYCSQNTHVPPTFGQGTKVEIERTVAAPSVFIFPPSDEQLKSGTASVVCLLNNFYPREAKVQWKVDNALQSGNSQESVTEQDSKDSTYSLSSTLTLSKADYEKHKVYACEVTHQGLSSPVTKSFNRGEC
# notes: homodimerized antibody, mutation in both H chains; also called S337_16H Ho Ab
# B2: GpH7-B3 variant S337_18N/GpL16-k0 (antibody, human IgG1, kappa)
# heavy: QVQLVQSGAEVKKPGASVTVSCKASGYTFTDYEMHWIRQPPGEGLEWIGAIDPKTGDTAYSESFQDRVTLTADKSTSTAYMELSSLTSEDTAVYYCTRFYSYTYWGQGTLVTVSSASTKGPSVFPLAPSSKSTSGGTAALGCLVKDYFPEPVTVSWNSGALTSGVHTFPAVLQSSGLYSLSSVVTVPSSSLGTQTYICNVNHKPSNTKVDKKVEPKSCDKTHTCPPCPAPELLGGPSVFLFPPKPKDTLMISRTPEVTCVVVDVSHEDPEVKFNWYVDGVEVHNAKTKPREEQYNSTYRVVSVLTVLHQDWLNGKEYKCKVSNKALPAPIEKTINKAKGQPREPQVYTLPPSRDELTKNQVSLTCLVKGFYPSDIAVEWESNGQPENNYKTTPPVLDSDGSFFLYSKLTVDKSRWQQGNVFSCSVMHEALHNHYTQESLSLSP
# light: B1 light
# notes: homodimerized antibody, mutation in both H chains; also called S337_18N Ho Ab
# B3: GpH7-B3 variant T335_01G/GpL16-k0 (antibody, human IgG1, kappa)
# heavy: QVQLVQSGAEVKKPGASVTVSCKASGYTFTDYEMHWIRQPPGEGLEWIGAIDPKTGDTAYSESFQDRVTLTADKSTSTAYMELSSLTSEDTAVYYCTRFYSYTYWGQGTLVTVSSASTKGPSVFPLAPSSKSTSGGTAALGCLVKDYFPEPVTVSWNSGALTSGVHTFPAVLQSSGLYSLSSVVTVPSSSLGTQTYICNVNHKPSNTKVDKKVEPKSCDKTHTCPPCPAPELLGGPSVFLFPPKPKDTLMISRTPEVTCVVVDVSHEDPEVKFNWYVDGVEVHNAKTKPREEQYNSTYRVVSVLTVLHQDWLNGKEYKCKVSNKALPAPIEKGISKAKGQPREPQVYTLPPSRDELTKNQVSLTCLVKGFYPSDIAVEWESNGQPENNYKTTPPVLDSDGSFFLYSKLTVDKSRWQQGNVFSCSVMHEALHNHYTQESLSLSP
# light: B1 light
# notes: homodimerized antibody, mutation in both H chains; also called T335_01G Ho Ab
# B4: GpH7-B3 variant T335_02A/GpL16-k0 (antibody, human IgG1, kappa)
# heavy: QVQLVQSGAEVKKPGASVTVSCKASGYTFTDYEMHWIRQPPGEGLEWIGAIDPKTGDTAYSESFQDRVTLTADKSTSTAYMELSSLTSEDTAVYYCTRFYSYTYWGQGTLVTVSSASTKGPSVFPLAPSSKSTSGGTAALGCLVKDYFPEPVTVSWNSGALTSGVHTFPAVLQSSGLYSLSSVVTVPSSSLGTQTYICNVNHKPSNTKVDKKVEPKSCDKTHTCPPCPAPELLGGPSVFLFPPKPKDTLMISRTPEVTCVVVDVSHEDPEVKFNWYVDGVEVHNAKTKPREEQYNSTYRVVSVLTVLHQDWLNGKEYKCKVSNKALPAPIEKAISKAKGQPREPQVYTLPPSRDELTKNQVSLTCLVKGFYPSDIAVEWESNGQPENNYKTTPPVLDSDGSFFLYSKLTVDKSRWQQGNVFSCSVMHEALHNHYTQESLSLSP
# light: B1 light
# notes: homodimerized antibody, mutation in both H chains; also called T335_02A Ho Ab
# B5: GpH7-B3 variant T335_13S/GpL16-k0 (antibody, human IgG1, kappa)
# heavy: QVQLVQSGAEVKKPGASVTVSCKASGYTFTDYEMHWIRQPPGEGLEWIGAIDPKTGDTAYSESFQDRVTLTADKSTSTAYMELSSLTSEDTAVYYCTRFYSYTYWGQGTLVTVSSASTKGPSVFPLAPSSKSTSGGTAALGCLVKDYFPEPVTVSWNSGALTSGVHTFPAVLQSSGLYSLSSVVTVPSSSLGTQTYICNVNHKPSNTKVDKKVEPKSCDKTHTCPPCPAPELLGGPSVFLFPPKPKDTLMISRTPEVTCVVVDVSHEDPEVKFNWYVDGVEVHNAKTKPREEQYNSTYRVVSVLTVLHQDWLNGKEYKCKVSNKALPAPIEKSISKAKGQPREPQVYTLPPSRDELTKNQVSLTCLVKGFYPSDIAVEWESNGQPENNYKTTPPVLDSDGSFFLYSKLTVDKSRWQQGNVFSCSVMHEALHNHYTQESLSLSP
# light: B1 light
# notes: homodimerized antibody, mutation in both H chains; also called T335_13S Ho Ab
# B6: GpH7-B3 variant Y296_02A/GpL16-k0 (antibody, human IgG1, kappa)
# heavy: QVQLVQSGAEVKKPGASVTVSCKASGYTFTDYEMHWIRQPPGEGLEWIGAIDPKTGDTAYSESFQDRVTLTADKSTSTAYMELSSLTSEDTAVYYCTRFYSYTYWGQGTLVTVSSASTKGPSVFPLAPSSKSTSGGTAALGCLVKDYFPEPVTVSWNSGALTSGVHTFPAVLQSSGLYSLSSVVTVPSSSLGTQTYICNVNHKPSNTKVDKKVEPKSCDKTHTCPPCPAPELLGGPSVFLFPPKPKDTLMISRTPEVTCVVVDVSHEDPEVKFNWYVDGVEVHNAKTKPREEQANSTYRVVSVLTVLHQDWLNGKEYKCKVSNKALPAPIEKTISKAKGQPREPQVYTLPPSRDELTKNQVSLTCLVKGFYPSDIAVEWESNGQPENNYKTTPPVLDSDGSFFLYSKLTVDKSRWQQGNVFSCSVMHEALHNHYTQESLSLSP
# light: B1 light
# notes: homodimerized antibody, mutation in both H chains; also called Y296_02A Ho Ab
# B7: GpH7-B3 variant Y296_03V/GpL16-k0 (antibody, human IgG1, kappa)
# heavy: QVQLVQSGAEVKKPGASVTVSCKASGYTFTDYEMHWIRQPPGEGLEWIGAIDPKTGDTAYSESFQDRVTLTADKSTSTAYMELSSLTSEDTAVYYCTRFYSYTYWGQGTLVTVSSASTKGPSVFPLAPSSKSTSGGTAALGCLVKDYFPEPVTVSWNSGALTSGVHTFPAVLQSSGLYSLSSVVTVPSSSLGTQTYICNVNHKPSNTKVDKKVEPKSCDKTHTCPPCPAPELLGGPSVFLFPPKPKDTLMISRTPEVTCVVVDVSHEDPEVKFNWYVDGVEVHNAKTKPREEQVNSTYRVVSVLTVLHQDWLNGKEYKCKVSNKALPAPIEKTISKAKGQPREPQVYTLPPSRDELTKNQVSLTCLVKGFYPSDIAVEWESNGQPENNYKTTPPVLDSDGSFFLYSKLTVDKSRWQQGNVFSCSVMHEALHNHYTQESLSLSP
# light: B1 light
# notes: homodimerized antibody, mutation in both H chains; also called Y296_03V Ho Ab
# B8: GpH7-B3 variant Y296_07I/GpL16-k0 (antibody, human IgG1, kappa)
# heavy: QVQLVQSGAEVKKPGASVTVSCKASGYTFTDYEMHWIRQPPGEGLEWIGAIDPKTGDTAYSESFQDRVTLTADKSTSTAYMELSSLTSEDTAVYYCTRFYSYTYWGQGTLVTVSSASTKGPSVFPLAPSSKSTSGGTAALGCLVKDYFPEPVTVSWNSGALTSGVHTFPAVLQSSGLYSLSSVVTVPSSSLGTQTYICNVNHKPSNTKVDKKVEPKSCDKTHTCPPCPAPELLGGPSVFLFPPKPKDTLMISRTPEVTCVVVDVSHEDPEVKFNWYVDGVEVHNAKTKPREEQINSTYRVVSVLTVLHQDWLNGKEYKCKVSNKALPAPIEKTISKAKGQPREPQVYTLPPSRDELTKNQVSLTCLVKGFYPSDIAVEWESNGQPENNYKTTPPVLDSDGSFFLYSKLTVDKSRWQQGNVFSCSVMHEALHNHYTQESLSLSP
# light: B1 light
# notes: homodimerized antibody, mutation in both H chains; also called Y296_07I Ho Ab
# B9: GpH7-B3 variant Y296_08L/GpL16-k0 (antibody, human IgG1, kappa)
# heavy: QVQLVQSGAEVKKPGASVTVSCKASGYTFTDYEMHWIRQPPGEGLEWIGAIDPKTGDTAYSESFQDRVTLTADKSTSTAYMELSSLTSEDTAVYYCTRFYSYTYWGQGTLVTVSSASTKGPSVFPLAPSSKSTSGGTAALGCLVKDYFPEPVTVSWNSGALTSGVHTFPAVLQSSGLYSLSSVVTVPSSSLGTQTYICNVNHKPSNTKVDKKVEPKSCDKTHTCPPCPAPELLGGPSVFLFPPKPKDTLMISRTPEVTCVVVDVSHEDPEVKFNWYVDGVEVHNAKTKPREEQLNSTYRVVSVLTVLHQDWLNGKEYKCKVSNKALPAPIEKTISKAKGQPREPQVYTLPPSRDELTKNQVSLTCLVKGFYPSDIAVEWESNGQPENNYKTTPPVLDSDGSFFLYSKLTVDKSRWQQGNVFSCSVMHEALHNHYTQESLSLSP
# light: B1 light
# notes: homodimerized antibody, mutation in both H chains; also called Y296_08L Ho Ab
# B10: GpH7-B3 variant Y300_07I/GpL16-k0 (antibody, human IgG1, kappa)
# heavy: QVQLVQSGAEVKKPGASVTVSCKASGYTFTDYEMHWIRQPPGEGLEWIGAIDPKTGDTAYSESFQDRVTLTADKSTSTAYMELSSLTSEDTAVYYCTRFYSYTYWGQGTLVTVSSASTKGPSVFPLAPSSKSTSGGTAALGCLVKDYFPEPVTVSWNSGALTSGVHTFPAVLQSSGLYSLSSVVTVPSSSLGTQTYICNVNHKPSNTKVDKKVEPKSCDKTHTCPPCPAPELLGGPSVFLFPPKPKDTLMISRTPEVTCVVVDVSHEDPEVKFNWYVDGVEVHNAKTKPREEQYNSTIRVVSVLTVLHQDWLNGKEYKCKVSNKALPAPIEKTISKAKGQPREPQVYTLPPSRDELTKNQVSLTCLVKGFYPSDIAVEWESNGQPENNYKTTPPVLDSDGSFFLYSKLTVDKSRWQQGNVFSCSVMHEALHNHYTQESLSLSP
# light: B1 light
# notes: homodimerized antibody, mutation in both H chains; also called Y300_07I Ho Ab
# B11: GpH7-B3 variant Y300_16H/GpL16-k0 (antibody, human IgG1, kappa)
# heavy: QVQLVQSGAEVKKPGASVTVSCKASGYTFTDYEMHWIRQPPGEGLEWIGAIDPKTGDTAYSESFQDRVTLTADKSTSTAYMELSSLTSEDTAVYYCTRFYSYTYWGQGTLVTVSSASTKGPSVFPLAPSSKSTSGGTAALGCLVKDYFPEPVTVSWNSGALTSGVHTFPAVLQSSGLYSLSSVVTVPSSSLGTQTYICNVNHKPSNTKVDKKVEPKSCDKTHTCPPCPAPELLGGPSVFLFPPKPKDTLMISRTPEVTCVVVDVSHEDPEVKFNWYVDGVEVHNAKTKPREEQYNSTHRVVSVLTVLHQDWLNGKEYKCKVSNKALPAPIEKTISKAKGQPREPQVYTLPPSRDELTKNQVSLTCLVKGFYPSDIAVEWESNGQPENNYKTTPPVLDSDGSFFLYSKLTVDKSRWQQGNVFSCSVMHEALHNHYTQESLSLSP
# light: B1 light
# notes: homodimerized antibody, mutation in both H chains; also called Y300_16H Ho Ab
# B12: GpH7-A5/GpH7-B3 variant K334_01G/GpL16-k0 (antibody, human IgG1, kappa)
# heavy 1: not shown
# heavy 2: not shown
# light: B1 light
# notes: heterodimerized antibody, mutation in one H chain only; also called K334_01G He Ab
# B13: GpH7-A5/GpH7-B3 variant I336_15Y/GpL16-k0 (antibody, human IgG1, kappa)
# heavy 1: not shown
# heavy 2: not shown
# light: B1 light
# notes: heterodimerized antibody, mutation in one H chain only; also called I336_15Y He Ab
# B14: GpH7-A5/GpH7-B3 variant I336_16H/GpL16-k0 (antibody, human IgG1, kappa)
# heavy 1: not shown
# heavy 2: not shown
# light: B1 light
# notes: heterodimerized antibody, mutation in one H chain only; also called I336_16H He Ab
# B15: GpH7-A5/GpH7-B3 variant K326_03V/GpL16-k0 (antibody, human IgG1, kappa)
# heavy 1: not shown
# heavy 2: not shown
# light: B1 light
# notes: heterodimerized antibody, mutation in one H chain only; also called K326_03V He Ab
# B16: GpH7-A5/GpH7-B3 variant K326_04F/GpL16-k0 (antibody, human IgG1, kappa)
# heavy 1: not shown
# heavy 2: not shown
# light: B1 light
# notes: heterodimerized antibody, mutation in one H chain only; also called K326_04F He Ab
# B17: GpH7-A5/GpH7-B3 variant K326_06M/GpL16-k0 (antibody, human IgG1, kappa)
# heavy 1: not shown
# heavy 2: not shown
# light: B1 light
# notes: heterodimerized antibody, mutation in one H chain only; also called K326_06M He Ab
# B18: GpH7-A5/GpH7-B3 variant K326_07I/GpL16-k0 (antibody, human IgG1, kappa)
# heavy 1: not shown
# heavy 2: not shown
# light: B1 light
# notes: heterodimerized antibody, mutation in one H chain only; also called K326_07I He Ab
# B19: GpH7-A5/GpH7-B3 variant K326_08L/GpL16-k0 (antibody, human IgG1, kappa)
# heavy 1: not shown
# heavy 2: not shown
# light: B1 light
# notes: heterodimerized antibody, mutation in one H chain only; also called K326_08L He Ab
# B20: GpH7-A5/GpH7-B3 variant K326_09D/GpL16-k0 (antibody, human IgG1, kappa)
# heavy 1: not shown
# heavy 2: not shown
# light: B1 light
# notes: heterodimerized antibody, mutation in one H chain only; also called K326_09D He Ab
# B21: GpH7-A5/GpH7-B3 variant K326_10E/GpL16-k0 (antibody, human IgG1, kappa)
# heavy 1: not shown
# heavy 2: not shown
# light: B1 light
# notes: heterodimerized antibody, mutation in one H chain only; also called K326_10E He Ab
# B22: GpH7-A5/GpH7-B3 variant K326_19Q/GpL16-k0 (antibody, human IgG1, kappa)
# heavy 1: not shown
# heavy 2: not shown
# light: B1 light
# notes: heterodimerized antibody, mutation in one H chain only; also called K326_19Q He Ab
# B23: GpH7-A5/GpH7-B3 variant K326_20W/GpL16-k0 (antibody, human IgG1, kappa)
# heavy 1: not shown
# heavy 2: not shown
# light: B1 light
# notes: heterodimerized antibody, mutation in one H chain only; also called K326_20W He Ab
# B24: GpH7-A5/GpH7-B3 variant K334_02A/GpL16-k0 (antibody, human IgG1, kappa)
# heavy 1: not shown
# heavy 2: not shown
# light: B1 light
# notes: heterodimerized antibody, mutation in one H chain only; also called K334_02A He Ab
# B25: GpH7-A5/GpH7-B3 variant K334_03V/GpL16-k0 (antibody, human IgG1, kappa)
# heavy 1: not shown
# heavy 2: not shown
# light: B1 light
# notes: heterodimerized antibody, mutation in one H chain only; also called K334_03V He Ab
# B26: GpH7-A5/GpH7-B3 variant K334_04F/GpL16-k0 (antibody, human IgG1, kappa)
# heavy 1: not shown
# heavy 2: not shown
# light: B1 light
# notes: heterodimerized antibody, mutation in one H chain only; also called K334_04F He Ab
# B27: GpH7-A5/GpH7-B3 variant K334_05P/GpL16-k0 (antibody, human IgG1, kappa)
# heavy 1: not shown
# heavy 2: not shown
# light: B1 light
# notes: heterodimerized antibody, mutation in one H chain only; also called K334_05P He Ab
# B28: GpH7-A5/GpH7-B3 variant K334_07I/GpL16-k0 (antibody, human IgG1, kappa)
# heavy 1: not shown
# heavy 2: not shown
# light: B1 light
# notes: heterodimerized antibody, mutation in one H chain only; also called K334_07I He Ab
# B29: GpH7-A5/GpH7-B3 variant K334_08L/GpL16-k0 (antibody, human IgG1, kappa)
# heavy 1: not shown
# heavy 2: not shown
# light: B1 light
# notes: heterodimerized antibody, mutation in one H chain only; also called K334_08L He Ab
# B30: GpH7-A5/GpH7-B3 variant K334_09D/GpL16-k0 (antibody, human IgG1, kappa)
# heavy 1: not shown
# heavy 2: not shown
# light: B1 light
# notes: heterodimerized antibody, mutation in one H chain only; also called K334_09D He Ab
# B31: GpH7-A5/GpH7-B3 variant K334_13S/GpL16-k0 (antibody, human IgG1, kappa)
# heavy 1: not shown
# heavy 2: not shown
# light: B1 light
# notes: heterodimerized antibody, mutation in one H chain only; also called K334_13S He Ab
# B32: GpH7-A5/GpH7-B3 variant K334_14T/GpL16-k0 (antibody, human IgG1, kappa)
# heavy 1: not shown
# heavy 2: not shown
# light: B1 light
# notes: heterodimerized antibody, mutation in one H chain only; also called K334_14T He Ab
# B33: GpH7-A5/GpH7-B3 variant K334_15Y/GpL16-k0 (antibody, human IgG1, kappa)
# heavy 1: not shown
# heavy 2: not shown
# light: B1 light
# notes: heterodimerized antibody, mutation in one H chain only; also called K334_15Y He Ab
# B34: GpH7-A5/GpH7-B3 variant K334_16H/GpL16-k0 (antibody, human IgG1, kappa)
# heavy 1: not shown
# heavy 2: not shown
# light: B1 light
# notes: heterodimerized antibody, mutation in one H chain only; also called K334_16H He Ab
# B35: GpH7-A5/GpH7-B3 variant K334_18N/GpL16-k0 (antibody, human IgG1, kappa)
# heavy 1: not shown
# heavy 2: not shown
# light: B1 light
# notes: heterodimerized antibody, mutation in one H chain only; also called K334_18N He Ab
# B36: GpH7-A5/GpH7-B3 variant K334_19Q/GpL16-k0 (antibody, human IgG1, kappa)
# heavy 1: not shown
# heavy 2: not shown
# light: B1 light
# notes: heterodimerized antibody, mutation in one H chain only; also called K334_19Q He Ab
# B37: GpH7-A5/GpH7-B3 variant L328_15Y/GpL16-k0 (antibody, human IgG1, kappa)
# heavy 1: not shown
# heavy 2: not shown
# light: B1 light
# notes: heterodimerized antibody, mutation in one H chain only; also called L328_15Y He Ab
# B38: GpH7-A5/GpH7-B3 variant P271_01G/GpL16-k0 (antibody, human IgG1, kappa)
# heavy 1: not shown
# heavy 2: not shown
# light: B1 light
# notes: heterodimerized antibody, mutation in one H chain only; also called P271_01G He Ab
# B39: GpH7-A5/GpH7-B3 variant P271_08L/GpL16-k0 (antibody, human IgG1, kappa)
# heavy 1: not shown
# heavy 2: not shown
# light: B1 light
# notes: heterodimerized antibody, mutation in one H chain only; also called P271_08L He Ab
# B40: GpH7-A5/GpH7-B3 variant P271_10E/GpL16-k0 (antibody, human IgG1, kappa)
# heavy 1: not shown
# heavy 2: not shown
# light: B1 light
# notes: heterodimerized antibody, mutation in one H chain only; also called P271_10E He Ab
# B41: GpH7-A5/GpH7-B3 variant P271_18N/GpL16-k0 (antibody, human IgG1, kappa)
# heavy 1: not shown
# heavy 2: not shown
# light: B1 light
# notes: heterodimerized antibody, mutation in one H chain only; also called P271_18N He Ab
# B42: GpH7-A5/GpH7-B3 variant P271_19Q/GpL16-k0 (antibody, human IgG1, kappa)
# heavy 1: not shown
# heavy 2: not shown
# light: B1 light
# notes: heterodimerized antibody, mutation in one H chain only; also called P271_19Q He Ab
# B43: GpH7-A5/GpH7-B3 variant Q295_10E/GpL16-k0 (antibody, human IgG1, kappa)
# heavy 1: not shown
# heavy 2: not shown
# light: B1 light
# notes: heterodimerized antibody, mutation in one H chain only; also called Q295_10E He Ab
# B44: GpH7-A5/GpH7-B3 variant Q295_12R/GpL16-k0 (antibody, human IgG1, kappa)
# heavy 1: not shown
# heavy 2: not shown
# light: B1 light
# notes: heterodimerized antibody, mutation in one H chain only; also called Q295_12R He Ab
# Target: T1, FcγRIa extracellular domain with C-terminal His tag (human, UniProt P12314 16-292)
# T1 construct: extracellular domain; soluble analyte in Biacore; also called FcgRI; CD64
# Assay: SPR (Biacore), relative FcγRIa binding, GpH7-B3/GpL16-k0 (HoCon Ab) = 100
# T1 sequence (P12314 16-292): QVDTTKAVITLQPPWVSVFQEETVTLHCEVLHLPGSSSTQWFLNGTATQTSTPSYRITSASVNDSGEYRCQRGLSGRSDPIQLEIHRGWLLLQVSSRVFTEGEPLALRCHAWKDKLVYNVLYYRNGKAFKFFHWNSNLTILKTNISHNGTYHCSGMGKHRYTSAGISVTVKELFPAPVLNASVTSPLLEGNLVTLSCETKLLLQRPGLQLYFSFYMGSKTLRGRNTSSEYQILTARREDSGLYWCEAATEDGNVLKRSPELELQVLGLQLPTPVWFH
row,Ho/Con_1a,Binder
1,105 % of control,B1
2,106 % of control,B2
3,106 % of control,B3
4,105 % of control,B4
5,105 % of control,B5
6,103 % of control,B6
7,104 % of control,B7
8,106 % of control,B8
9,105 % of control,B9
10,109 % of control,B10
11,111 % of control,B11

# Target: T1, FcγRIa extracellular domain with …
# Assay: SPR (Biacore), relative FcγRIa binding, GpH7-A5/GpH7-B3/GpL16-k0 (HeCon Ab) = 100
row,He/Con_1a,Binder
1,104 % of control,B12
2,103 % of control,B13
3,101 % of control,B14
4,102 % of control,B15
5,102 % of control,B16
6,102 % of control,B17
7,101 % of control,B18
8,100 % of control,B19
9,103 % of control,B20
10,104 % of control,B21
11,102 % of control,B22
12,103 % of control,B23
13,106 % of control,B24
14,105 % of control,B25
15,105 % of control,B26
16,104 % of control,B27
17,104 % of control,B28

row,He/Con_1a,Binder
1,105 % of control,B29
2,106 % of control,B30
3,105 % of control,B31
4,105 % of control,B32
5,105 % of control,B33
6,105 % of control,B34
7,105 % of control,B35
8,106 % of control,B36
9,102 % of control,B37
10,105 % of control,B38
11,102 % of control,B39
12,103 % of control,B40
13,103 % of control,B41
14,103 % of control,B42
15,103 % of control,B43
16,100 % of control,B44
